Source: patent US20220010021A1 (Sanofi, published 2022)

B1: human FGF21 (ligand)
chain: GHPIPDSSPLLQFGGQVRQRYLYTDDAQQTEAHLEIREDGTVGGAADQSPESLLQLKALKPGVIQILGVKTSRFLCQRPDGALYGSLHFDPEACSFRELLLEDGYNVYQSEAHGLPLHLPGNKSPHRDPAPRGPARFLPLPGLPPAPPEPPGILAPQPPDVGSSDPLSMVGPSQGRSPSYAS
B2: Ab0181 (antibody, IgG4, V domains shown)
VH: not shown
VL: SYVLTQPPSVSVAPGQTARITCGGNNIGSESVHWYQQKPGQAPVLVVYYDSDRPSGIPERFSGSNSGNTATLTISRVEAGDEADYYCQVWDGNSDHVVFGGGTKLTVLG
B3: Ab0192 (antibody, IgG4, V domains shown)
VH: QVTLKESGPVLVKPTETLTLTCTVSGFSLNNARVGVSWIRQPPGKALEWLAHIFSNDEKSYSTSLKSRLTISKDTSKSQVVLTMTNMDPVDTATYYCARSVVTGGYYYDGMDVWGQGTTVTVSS
VL: SYVLTQPPSVSVAPGQTARITCGGNNIGSESVHWYQQKPGQAPVLVVYDDSDRPSGIPERFSGSNSGNTATLTISRVEAGDEADYYCQVWDGNSEHVVFGGGTKLTVLG
B4: Ab0238 (antibody, IgG4, V domains shown)
VH: not shown
VL: SYVLTQPPSVSVAPGQTARITCGGNNIGSESVHWYQQKPGQAPVLVVYDDSDRPSGIPERFSGSNSGNTATLTISRVEAGDEADYYCQVWDGNSSHVVFGGGTKLTVLG
B5: Ab0209 (antibody, IgG4, V domains shown)
VH: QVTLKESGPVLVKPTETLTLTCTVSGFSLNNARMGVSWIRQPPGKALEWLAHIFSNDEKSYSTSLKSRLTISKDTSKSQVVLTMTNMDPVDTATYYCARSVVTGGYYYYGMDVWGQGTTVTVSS
VL: SYVLTQPPSVSVAPGQTARITCGGNNIGSESVHWYQQKPGQAPVLVVYYDSDRPSGIPERFSGSNSGNTATLTISRVEAGDEADYYCQVWDGNSDHVVFGGGTKLTVLG
B6: Ab0210 (antibody, IgG4, V domains shown)
VH: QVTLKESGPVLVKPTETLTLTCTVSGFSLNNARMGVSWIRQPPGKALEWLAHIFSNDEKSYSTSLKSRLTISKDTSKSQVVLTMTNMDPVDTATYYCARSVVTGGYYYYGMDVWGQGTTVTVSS
VL: SYVLTQPPSVSVAPGQTARITCGGNNIGSESVHWYQQKPGQAPVLVVYDESDRPSGIPERFSGSNSGNTATLTISRVEAGDEADYYCQVWDGNSDHVVFGGGTKLTVLG
B7: Ab0302 (antibody, IgG4, V domains shown)
VH: QVTLKESGPVLVKPTETLTLTCTVSGFSLNNARVGVSWIRQPPGKALEWLAHIFSNDEKSYSTSLKSRLTISKDTSKSQVVLTMTNMDPVDTATYYCARSVVTGGYYYEGMDVWGQGTTVTVSS
VL: SYVLTQPPSVSVAPGQTARITCGGNNIGSESVHWYQQKPGQAPVLVVYDESDRPSGIPERFSGSNSGNTATLTISRVEAGDEADYYCQVWTGNSDHVVFGGGTKLTVLG
B8: Ab0304 (antibody, IgG4, V domains shown)
VH: QVTLKESGPVLVKPTETLTLTCTVSGFSLNNARVGVSWIRQPPGKALEWLAHIFSNDEKSYSTSLKSRLTISKDTSKSQVVLTMTNMDPVDTATYYCARSVVTGGYYYEGMDVWGQGTTVTVSS
VL: SYVLTQPPSVSVAPGQTARITCGGNNIGSESVHWYQQKPGQAPVLVVYYESDRPSGIPERFSGSNSGNTATLTISRVEAGDEADYYCQVWTGNSDHVVFGGGTKLTVLG
B9: Ab0299 (antibody, IgG4, V domains shown)
VH: QVTLKESGPVLVKPTETLTLTCTVSGFSLNNARVGVSWIRQPPGKALEWLAHIFSNDEKSYSTSLKSRLTISKDTSKSQVVLTMTNMDPVDTATYYCARSVVTGGYYYEGMDVWGQGTTVTVSS
VL: SYVLTQPPSVSVAPGQTARITCGGSNIGSESVHWYQQKPGQAPVLVVYDDSDRPSGIPERFSGSNSGNTATLTISRVEAGDEADYYCQVWTGNSDHVVFGGGTKLTVLG
B10: Ab0237 (antibody, IgG4, V domains shown)
VH: not shown
VL: SYVLTQPPSVSVAPGQTARITCGGNNIGSESVHWYQQKPGQAPVLVVYDDSDRPSGIPERFSGSNSGNTATLTISRVEAGDEADYYCQVWDGNSAHVVFGGGTKLTVLG
B11: Ab0199 (antibody, IgG4, V domains shown)
VH: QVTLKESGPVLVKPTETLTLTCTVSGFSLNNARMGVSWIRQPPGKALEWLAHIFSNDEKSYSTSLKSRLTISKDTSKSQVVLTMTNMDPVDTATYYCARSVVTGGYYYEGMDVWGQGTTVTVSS
VL: SYVLTQPPSVSVAPGQTARITCGGNNIGSESVHWYQQKPGQAPVLVVYDDSDRPSGIPERFSGSNSGNTATLTISRVEAGDEADYYCQVWDGNSEHVVFGGGTKLTVLG
B12: Ab0220 (antibody, IgG4, V domains shown)
VH: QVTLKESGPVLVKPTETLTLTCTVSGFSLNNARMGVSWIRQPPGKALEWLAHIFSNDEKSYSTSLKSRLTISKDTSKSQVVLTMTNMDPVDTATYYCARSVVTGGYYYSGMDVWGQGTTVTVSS
VL: SYVLTQPPSVSVAPGQTARITCGGNNIGSESVHWYQQKPGQAPVLVVYDDSDRPSGIPERFSGSNSGNTATLTISRVEAGDEADYYCQVWDGNSEHVVFGGGTKLTVLG
B13: Ab0301 (antibody, IgG4, V domains shown)
VH: QVTLKESGPVLVKPTETLTLTCTVSGFSLNNARVGVSWIRQPPGKALEWLAHIFSNDEKSYSTSLKSRLTISKDTSKSQVVLTMTNMDPVDTATYYCARSVVTGGYYYEGMDVWGQGTTVTVSS
VL: SYVLTQPPSVSVAPGQTARITCGGSNIGSESVHWYQQKPGQAPVLVVYYDSDRPSGIPERFSGSNSGNTATLTISRVEAGDEADYYCQVWTGNSDHVVFGGGTKLTVLG
B14: Ab0185 (antibody, IgG4, V domains shown)
VH: not shown
VL: SYVLTQPPSVSVAPGQTARITCGGNNIGSESVHWYQQKPGQAPVLVVYDDSDRPSGIPERFSGSNSGNTATLTISRVEAGDEADYYCQVWDGNSEHVVFGGGTKLTVLG
B15: Ab0313 (antibody, IgG4, V domains shown)
VH: QVTLKESGPVLVKPTETLTLTCTVSGFSLNNARVGVSWIRQPPGKALEWLAHIFSNDEKSYSTSLKSRLTISKDTSKSQVVLTMTNMDPVDTATYYCARSVVTGGYYYEGMDVWGQGTTVTVSS
VL: SYVLTQPPSVSVAPGQTARITCGGNNIGSESVHWYQQKPGQAPVLVVYDDSDRPSGIPERFSGSNSGNTATLTISRVEAGDEADYYCQVWTGESDHVVFGGGTKLTVLG
B16: Ab0206 (antibody, IgG4, V domains shown)
VH: QVTLKESGPVLVKPTETLTLTCTVSGFSLNNARVGVSWIRQPPGKALEWLAHIFSNDEKSYSTSLKSRLTISKDTSKSQVVLTMTNMDPVDTATYYCARSVVTGGYYYEGMDVWGQGTTVTVSS
VL: SYVLTQPPSVSVAPGQTARITCGGNNIGSESVHWYQQKPGQAPVLVVYDDSDRPSGIPERFSGSNSGNTATLTISRVEAGDEADYYCQVWDGNSEHVVFGGGTKLTVLG
B17: Ab0300 (antibody, IgG4, V domains shown)
VH: QVTLKESGPVLVKPTETLTLTCTVSGFSLNNARVGVSWIRQPPGKALEWLAHIFSNDEKSYSTSLKSRLTISKDTSKSQVVLTMTNMDPVDTATYYCARSVVTGGYYYEGMDVWGQGTTVTVSS
VL: SYVLTQPPSVSVAPGQTARITCGGNNIGSESVHWYQQKPGQAPVLVVYYDSDRPSGIPERFSGSNSGNTATLTISRVEAGDEADYYCQVWTGNSDHVVFGGGTKLTVLG
B18: Ab0303 (antibody, IgG4, V domains shown)
VH: QVTLKESGPVLVKPTETLTLTCTVSGFSLNNARVGVSWIRQPPGKALEWLAHIFSNDEKSYSTSLKSRLTISKDTSKSQVVLTMTNMDPVDTATYYCARSVVTGGYYYEGMDVWGQGTTVTVSS
VL: SYVLTQPPSVSVAPGQTARITCGGSNIGSESVHWYQQKPGQAPVLVVYDESDRPSGIPERFSGSNSGNTATLTISRVEAGDEADYYCQVWTGNSDHVVFGGGTKLTVLG
B19: Ab0211 (antibody, IgG4, V domains shown)
VH: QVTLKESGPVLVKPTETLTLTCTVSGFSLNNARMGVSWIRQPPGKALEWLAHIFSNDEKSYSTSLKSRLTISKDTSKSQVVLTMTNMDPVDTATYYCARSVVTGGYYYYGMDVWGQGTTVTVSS
VL: SYVLTQPPSVSVAPGQTARITCGGNNIGSESVHWYQQKPGQAPVLVVYDDSDRPSGIPERFSGSNSGNTATLTISRVEAGDEADYYCQVWTGNSDHVVFGGGTKLTVLG
B20: Ab0213 (antibody, IgG4, V domains shown)
VH: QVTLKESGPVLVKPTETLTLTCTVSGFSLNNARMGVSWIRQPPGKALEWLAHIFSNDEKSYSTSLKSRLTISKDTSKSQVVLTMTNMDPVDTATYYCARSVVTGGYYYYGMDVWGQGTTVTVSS
VL: SYVLTQPPSVSVAPGQTARITCGGNNIGSESVHWYQQKPGQAPVLVVYDDSDRPSGIPERFSGSNSGNTATLTISRVEAGDEADYYCQVWDGNSEHVVFGGGTKLTVLG
B21: Ab0350 (antibody, IgG4, V domains shown)
VH: QVTLKESGPVLVKPTETLTLTCTVSGFSLNNARVGVSWIRQPPGKALEWLAHIFSNDEKSYSTSLKSRLTISKDTSKSQVVLTMTNMDPVDTATYYCARSVVTGGYYYEGMDVWGQGTTVTVSS
VL: SYVLTQPPSVSVAPGQTARITCGGSNIGSESVHWYQQKPGQAPVLVVYEESDRPSGIPERFSGSNSGNTATLTISRVEAGDEADYYCQVWAGSSDHVVFGGGTKLTVLG
B22: Ab0386 (antibody, IgG4, V domains shown)
VH: QVTLKESGPVLVKPTETLTLTCTVSGFSLNNARVGVSWIRQPPGKALEWLAHIWSNDEKSYSTSLKSRLTISKDTSKSQVVLTMTNMDPVDTATYYCARSVVTGGYYYEGMDVWGQGTTVTVSS
VL: SYVLTQPPSVSVAPGQTARITCGGNNIGSESVHWYQQKPGQAPVLVVYDDSDRPSGIPERFSGSNSGNTATLTISRVEAGDEADYYCQVFDGNSSHVVFGGGTKLTVLG
B23: Ab0415 (antibody, IgG4, V domains shown)
VH: QVTLKESGPVLVKPTETLTLTCTVSGFSLNNARVGVSWIRQPPGKALEWLAHIFSNDEKSYSTSLKSRLTISKDTSKSQVVLTMTNMDPVDTATYYCARSVVTGGYYYEGMDVWGQGTTVTVSS
VL: SYVLTQPPSVSVAPGQTARITCGGSNIGSESVHWYQQKPGQAPVLVVYYESDRPSGIPERFSGSNSGNTATLTISRVEAGDEADYYCQVWAGESDHVVFGGGTKLTVLG
B24: Ab0224 (antibody, IgG4, V domains shown)
VH: not shown
VL: SYVLTQPPSVSVAPGQTARITCGGNNIGSESVHWYQQKPGQAPVLVVYADSDRPSGIPERFSGSNSGNTATLTISRVEAGDEADYYCQVWDGNSDHVVFGGGTKLTVLG
B25: Ab0330 (antibody, IgG4, V domains shown)
VH: QVTLKESGPVLVKPTETLTLTCTVSGFSLNNARVGVSWIRQPPGKALEWLAHIFSNDEKSYSTSLKSRLTISKDTSKSQVVLTMTNMDPVDTATYYCARSVVTGGYYYEGMDVWGQGTTVTVSS
VL: SYVLTQPPSVSVAPGQTARITCGGSNIGSESVHWYQQKPGQAPVLVVYSESDRPSGIPERFSGSNSGNTATLTISRVEAGDEADYYCQVWAGESDHVVFGGGTKLTVLG

Biological target: human FGFR1c + KLB receptor complex on HEK293 iLite FGF21 reporter cells (human, UniProt P11362 22-822; Q86Z14 1-1044)
Assay: cell-based or functional assay

Chain of human FGFR1c + KLB receptor complex on HEK293 iLite FGF21 reporter cells (P11362 22-822, chain 1 of 2): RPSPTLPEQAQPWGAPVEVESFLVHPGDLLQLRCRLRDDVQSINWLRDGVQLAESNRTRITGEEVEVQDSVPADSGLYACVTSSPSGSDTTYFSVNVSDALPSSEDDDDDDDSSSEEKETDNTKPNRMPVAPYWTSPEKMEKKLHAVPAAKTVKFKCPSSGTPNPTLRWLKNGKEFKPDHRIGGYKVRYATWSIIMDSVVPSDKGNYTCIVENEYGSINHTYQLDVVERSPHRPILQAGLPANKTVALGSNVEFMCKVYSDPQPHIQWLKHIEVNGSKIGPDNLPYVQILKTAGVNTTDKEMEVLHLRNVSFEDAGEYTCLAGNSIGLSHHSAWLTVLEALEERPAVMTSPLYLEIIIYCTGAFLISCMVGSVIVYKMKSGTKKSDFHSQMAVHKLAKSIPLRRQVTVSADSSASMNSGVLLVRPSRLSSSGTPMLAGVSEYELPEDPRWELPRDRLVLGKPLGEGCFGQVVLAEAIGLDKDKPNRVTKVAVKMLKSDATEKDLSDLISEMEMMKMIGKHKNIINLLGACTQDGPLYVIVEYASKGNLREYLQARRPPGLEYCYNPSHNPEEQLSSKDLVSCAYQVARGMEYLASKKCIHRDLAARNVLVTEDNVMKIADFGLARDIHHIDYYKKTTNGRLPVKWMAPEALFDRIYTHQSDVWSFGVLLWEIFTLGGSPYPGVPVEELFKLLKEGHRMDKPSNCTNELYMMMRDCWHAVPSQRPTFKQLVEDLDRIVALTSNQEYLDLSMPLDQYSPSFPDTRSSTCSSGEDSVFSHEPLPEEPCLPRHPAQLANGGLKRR
Chain of human FGFR1c + KLB receptor complex on HEK293 iLite FGF21 reporter cells (Q86Z14 whole entry, chain 2 of 2): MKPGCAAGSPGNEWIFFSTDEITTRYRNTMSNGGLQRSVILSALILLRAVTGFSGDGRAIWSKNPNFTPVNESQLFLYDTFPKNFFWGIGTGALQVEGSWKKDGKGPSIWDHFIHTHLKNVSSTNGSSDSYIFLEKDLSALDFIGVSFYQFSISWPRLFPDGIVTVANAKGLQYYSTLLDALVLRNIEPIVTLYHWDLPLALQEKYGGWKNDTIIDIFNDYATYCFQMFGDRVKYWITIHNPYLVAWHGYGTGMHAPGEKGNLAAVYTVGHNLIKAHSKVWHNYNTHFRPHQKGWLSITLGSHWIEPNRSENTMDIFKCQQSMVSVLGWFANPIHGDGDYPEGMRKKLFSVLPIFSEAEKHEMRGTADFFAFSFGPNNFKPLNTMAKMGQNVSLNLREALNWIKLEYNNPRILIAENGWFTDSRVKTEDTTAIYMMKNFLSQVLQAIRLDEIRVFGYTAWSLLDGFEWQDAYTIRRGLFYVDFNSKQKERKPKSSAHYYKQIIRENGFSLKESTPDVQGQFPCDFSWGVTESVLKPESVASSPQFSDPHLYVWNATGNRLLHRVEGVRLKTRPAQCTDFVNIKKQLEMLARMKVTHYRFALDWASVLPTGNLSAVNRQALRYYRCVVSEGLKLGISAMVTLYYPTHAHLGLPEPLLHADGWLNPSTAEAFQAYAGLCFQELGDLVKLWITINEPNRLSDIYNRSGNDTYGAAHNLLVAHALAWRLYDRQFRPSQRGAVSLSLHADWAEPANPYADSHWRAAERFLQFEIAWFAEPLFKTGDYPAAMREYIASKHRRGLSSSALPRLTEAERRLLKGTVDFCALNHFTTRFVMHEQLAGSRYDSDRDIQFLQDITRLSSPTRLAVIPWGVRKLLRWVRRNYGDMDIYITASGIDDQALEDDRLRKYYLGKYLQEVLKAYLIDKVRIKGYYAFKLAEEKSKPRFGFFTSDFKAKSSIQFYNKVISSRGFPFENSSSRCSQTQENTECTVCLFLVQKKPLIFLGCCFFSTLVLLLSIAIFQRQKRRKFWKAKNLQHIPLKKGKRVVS

Question: How did the EC50 turn out when B1 was run?
Answer: The EC50 was 0.35 nM.

Question: What about the Emax of the same binder?
Answer: Its Emax is 4000%.

Question: With B2 as the binder, how does the EC50 read?
Answer: Its EC50 is 0.03 nM.

Question: What about the Emax of the same binder?
Answer: The Emax was 2110%.

Question: What does the source list for B3?
Answer: EC50: 3.67 nM; Emax: 1610%

Question: For B4, which Emax is on record?
Answer: Its Emax is 856%.

Question: With B5 as the binder, how does the EC50 read?
Answer: The EC50 was 15.3 nM.

Question: And the Emax?
Answer: The Emax was 1960%.

Question: B6 was tested. Which EC50 did it give?
Answer: Its EC50 is 5.31 nM.

Question: What about the Emax of the same binder?
Answer: The Emax was 2390%.

Question: Which results are given for B7?
Answer: EC50: 3.94 nM; Emax: 795%

Question: Which results are given for B8?
Answer: EC50: 11.4 nM; Emax: 686%

Question: What does the source list for B9?
Answer: EC50: 0.1 nM; Emax: 1240%

Question: With B10 as the binder, how does the EC50 read?
Answer: Its EC50 is greater than 100 nM.

Question: What about the Emax of the same binder?
Answer: The Emax was 667%.

Question: What does the source list for B11?
Answer: EC50: > 100 nM; Emax: 736%

Question: Which results are given for B12?
Answer: EC50: 22.2 nM; Emax: 1190%

Question: B13 was tested. Which EC50 did it give?
Answer: Its EC50 is 21.5 nM.

Question: What about the Emax of the same binder?
Answer: Its Emax is 697%.

Question: What does the source list for B14?
Answer: EC50: 0.06 nM; Emax: 2350%

Question: Which results are given for B15?
Answer: EC50: 0.04 nM; Emax: 1130%

Question: For B16, which EC50 is on record?
Answer: The EC50 was 0.69 nM.

Question: And the Emax?
Answer: Its Emax is 2640%.

Question: What does the source list for B17?
Answer: EC50: 2.63 nM; Emax: 605%

Question: What does the source list for B18?
Answer: EC50: 19.2 nM; Emax: 809%

Question: For B19, which EC50 is on record?
Answer: Its EC50 is 12 nM.

Question: And the Emax?
Answer: The Emax was 1600%.

Question: How did the EC50 turn out when B20 was run?
Answer: Its EC50 is greater than 100 nM.

Question: And the Emax?
Answer: Its Emax is 122%.

Question: How did the EC50 turn out when B21 was run?
Answer: Its EC50 is 1.46 nM.

Question: What about the Emax of the same binder?
Answer: Its Emax is 493%.

Question: Which EC50 does the source give for B22 here?
Answer: The EC50 was greater than 100 nM.

Question: Which EC50 does the source give for B23 here?
Answer: The EC50 was 0.3 nM.

Question: What about the Emax of the same binder?
Answer: The Emax was 674%.

Question: How did the EC50 turn out when B24 was run?
Answer: The EC50 was 0.05 nM.

Question: What about the Emax of the same binder?
Answer: The Emax was 2260%.

Question: How did the EC50 turn out when B25 was run?
Answer: Its EC50 is 0.15 nM.

Question: And the Emax?
Answer: Its Emax is 932%.
